Source: patent US20240082327

Test system: Fct4 protein (Sendai virus F protein with truncated cytoplasmic domain), uncleaved

Substance: trypsin-like enzyme TrypLE
- cleavage of Fct4 shown by Western blotting: incubation with a trypsin-like enzyme successfully cleaves Fct4
